Consider 17 sequences from a protein production outcome set (Wang et al. 2014).
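Further: failed if final PepcDB status was selected cloned or expressed and not failed if soluble or beyond.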

The nature of this data set: label from the status in PepcDB records.
On to “MQGGSSGIGYGLKYQARCISDVKADRDHTSFLTGTLSLKEENEVHLLRLSSGGSELLCEGLFSHPNEIWDLASSPFDQRIFSTVFSTGDSYGAAIWQIPEPYGQSNSSTLECVASLDAHVGKINCVLWCPSGNSDKLISMDEQNLVFWSLDSSKKSAEVLSKESAGMRHSLSGGAWNPHDVNSVAATSESSIQFWDLRTMKKNNSIERAHVRNVDYNLKREHILVSADDESGIHLWDLRKTKFPVQELPGHTHWTWAVRCNPEYEELILSVGTDSAVNLWFASASSEHKTSESPVEASRQRVNPLLNSYTDYEDSVYGLAWSSREPWIFASLSYDGRVVIESVKPFLPRR”, for which the protein production result is on record as “not failed”.
Regarding “MQGISASPERMNAQQRAAHVRQVVLARGDELRRRFPLLRHQDALGAGILAFALSGMLGSALLYVTGHLAWWACLLLNAFFASLTHELEHDLIHSMYFRKQRLPHNLMLGLVWLARPSTINPWVRRHLHLNHHKVSGSESDIEERAITNGEPWGIARLLMVGDNMMAAFIRLLRAPGARRKLGILVRTLAVYAPLALLHWGAWYVFLGFHGANGVAALLGSPIQWSQDTASLMHYVDIAVVVIIGPNVLRTFCLHFVSSNMHYYGDIEPGNVIQQTQVLNPWWMWPLQAFCCNFGSTHGIHHFVVREPFYIRQMTASVAHKVMAEMGVRFNDFGTFARANRFTRQEREAMQPAHNARA”, the protein production entry is on record as “failed”.
The same measure for “MQGNLTALLITAIIVLTVVCIGFLAGRDKSSRTSVEEWSVGGRRFGGLLVWFLVGADLYTAYTFLGLTSTAFTGGSVAFFAIPYSVLAYFIAYFFLPKLWKVAKIHKLTTLADYARERFNSKLLASLVAIVGVLMLIPYICLQLSGIQDTLQVAGTGYINVKFVVIISFILVALYTFFSGIKGPTYTAIIKDILVWVIMLFMVVSLPLIHFNGWTPMIDTLVKEAPQMLTIPSEGPKGIPWFITASIVSALALFMWAHAATGVFTAKSADAVRKNSMFLPLYNIVLILVIFLGFIAFLVLPEDTNPRLALLHLIQTSYGGVAQGFAYATIALASLIPCSIMAIGASNLFANNLYRDLIHPNVSQSKLTLVTRSMVFVVIGLALLFGMLFPTALVTLQLLGVSGMVQIFPAIAVSLFWKNQTKEATVIGLLAGLAVTFIVYITQSAHGIYEGFWGLAANMIAVVILNPLFVKNAGSNPVIEGLFGKKQDANPNQKGA”: “failed”; for “MQGWLVIPVSLAYLGVLFLIAWYGDRQTRWLANWRPWIYSLSIAVYCTSWTFYGTVGQASVNPWSFLPIYIAPILMFVFGWRVLARLILIAKREHITSLADFIAARYGKSQGLAVAVTVIAVLGILPYIALQLRGITMGLNIVAPDLMTVYGYQESHVSWFVVLALALFTMLFGTRHIDNTEHHRGMMMAIAFESIVKLVAFLCVGVFIAYLAWRTDGLELSTIAASTYQAPNWPTLLIHTLLTMIAIVCLPRQFHTMVVENERPQDLHTARWLFPVYLLLMSLFVLPIAWTGQGLLPNTSPDTFVISLPVFAGAHDIALLAFLGGTSAASGMVIVSTIALAIMVSNDLVMPLLLRRMRLSQRTHRHFSGLLVVIRRTLILLLLFGAWGFYLVLDSIPSLSAIGFLSFSAITQFAPAIFGGMYWREGNRKGVYVGLAVGFTLWLITLMSATDMLAGDASNNVLLWVITPPDWLVALGLKSADWGMLLSVTLNTLCYIGVSLVTRASLSERLQAAAFVGTPLPENENMSLYQSRVTVGELEMLASRFVGRTRVRNAFAQYWSQQRETLLPNQQASSALIRHTERVLAGVFGASSAKLVLTSALQGRKMQLEEVATIVDEASELYDFSRGLLQGAIEHIGQGIAVVDKQLRLVAWNQRYLELFEFPPGLIQVGRPIADVIRHNAQQGLCGPGDPEDHVRRRVYHLEQGTSHTSSRVRADGRVIEVQGNPMPGGGFVMSFTDITVFREAEQSLKMANETLEERVLQRTLELEKLNKQLVTATQRSERESQSKSRFLAAVSHDLMQPLNAARLFASSLSEVAKEAEVQKLAHHIESALGAAEDLISDLLDISRLESGKIDLHPHSFAIMDVLSNLNAEFSALAAKQGVQFSLVPSLLWVHSDPKLLRRVIQNFLTNAFRYNPNGKVILGVRRVATGQVRIDVWDNGIGIEQDKQQEIFEEFNRGGQVRSDQGLGLGLAISKGIAHVLGHHISMRSWPGQGSVFSITLDRAQPMPSSLTQTVAMVNEKGSELQHLRVLCVDNEPDILVGMRDLLERWGCEVKTATDIHGSLKALEGQWIPDVILSDYRLDNGRTGLEVLQQCRLRLGDCFAGVIISADRNPDILDGIESSGFRFMAKPIKPLKLRALLNSLS”: “failed”.
Consider “MQHLREWLSDWFRRILPNAQAVSFAILLVVGFIVVVSLAKMLMPVFAAGIIAYLLDGLVEIGERRKLPRLVSVIVVYLLFLALLLVVFIGLLPLLYQQTLQLIEQAPSWVNRGQVLIMELPERYPDYITQEQVNDLIGAIRAELISYGQSMLTYSYASLVSLITVVVYFILVPLLVFFFLKDRDRILGWFTQYLPRDRNLSNRVWKEVDMQIGNYVRGKFVEIVILFAASFVTFSLMGLNYALLLAVLMGISVIIPYVGATLVTFPVMIVAFFQWGVSDDFWYLMLAYAIIQALDGVMLVPLLFSEVVNLHPVAIIVAILFFGGWWGFWGVFFAIPLATLVKAVLSAWPRLGEGEMPAAGGP”, for which the protein production result is “failed”.
The same measure for “MQIRVYDEGAVQDCLFVLGWGNRCRHRTVQWLIDQLTTAYRVHAVELPTHITDYRREWVGPVQEYAADLGRFDLLGHSAGGLTAAHLDADGIGNRVYLSPWWDSDFPVPGPVLDAIASLPITKPFIPIDTLDADAIGDLATAQQLAEAPSSVSPAFLRTVFRAQRSLPPARDTAAAFCSLTDTVVDPRAVGERLPADRIRLYDGGHELFSSSGREDTAETVIDTLQHGPDAL”: “failed”.
Regarding “MQIVTDKNKVALYYKDIAVTYKEFILNTKKIKQFTKIKEFTNNMIYMENRPELLYSFFAIWDSRATCVCIDASSTAVELTYYIDNSDVVKIFTTKMQVEKVKGALSILSKQIEIIVVDEINLSEIKIDENSSENLVINSPEKEDTALILYTSGTTGKPKGVMLTFDLEHHHHHH”, the protein production entry is “failed”.
Regarding “MQKFFQRIWQWIQQLFAPLVGGPGPGTKSLQELPPLSDTDYEFLFNQLLEGIAHGWHEGRILKFFQQLDHRCRPKQWLDWLDRFQTTVLASPSPNLVLAARMMRLGELAQSFPQIAPIGDKSQRIGRELYARQSPPQMDTVWEYDGPDLVSIDQAQGQMETFTFDELVQRLPQDAALATHFAGFLGIESTDPQVILRALMEKFAIPEEMLTEALNHGGESSSAPVDSLVEDQGTASALAQEELWPLVDPVTIDNSQFENNQEPHTAEDWLNLGIQQAQRGELETAIASWGEAISLNPQMTSAWQNRGSALGVMGKLEEALANFDEALAQNPDDAEVWLSRGLLLEAMERKEEAIPSYEKALTLEPTLPEAQERLEELQGLLSQD”, the protein production result is on record as “failed”.
The same measure for “MQKLTRINDFNEVLNSRKSVKVFDENYKIPREEMDEIITKATKAPSSVNMQPWRIAVVQSDEMKEKVKESFGFNSRQLTTSSAMLIIFGDLQNYEKAEQIYGDAVEQQLMTEDIKAQLLDWILPYYKNLSREGMKDIVNIDSSLMAMQLMLTAKAHGYDTNPIGGFDKENIADIIGYDSDRYVPVLAIAIGKKAQDAHDSVRLPIDDVREFL”: “not failed”; for “MQKVVLATGNVGKVRELASLLSDFGLDIVAQTDLGVDSAEETGLTFIENAILKARHAAKVTALPAIADDSGLAVDVLGGAPGIYSARYSGEDATDQKNLQKLLETMKDVPDDQRQARFHCVLVYLRHAEDPTPLVCHGSWPGVITREPAGTGGFGYDPIFFVPSEGKTAAELTREEKSAISHRGQALKLLLDALRNG”: “not failed”.
The same measure for “MQLALVLSELGEYQVSNQWLLKIIHDLDETMYDCLYFLANNYACLGLFREATQYAEQYLTCESDGEFADDAADLLELLKLDRHDVSEEQEQLITMQERARHLLEQERFAEAIEALEAIVSRYPEFWSAHNNLALAYFYNGDVERAKQKLLEVLKRDPGNLHALCNALVFAYYLHDQEEVAALCETLASVYPFFREHQYKLGATFALVGRFDSAFRWLYRLYKNGFDGDGPFYYWLAYSAYHIGHESLARQVWETLTTLHPEKLEHHHHHH”: “failed”; for “MQLINLRYISNWRVLLIAVVVLLCLLLSSQLGVVKPYEIVDPLDILGEGSTLFLTILIVIFMVTDRPRGNVTNLFYSGGLLLIFSMTLDVLDEFFRYPDALRLLSWLESFPLPVGLIIISFAAAEWRRENKMLSRQLMVREKNLRSHQWVDPLTSLYTTPYFIKLVEREIALQNSTDAESTVLVSVNFKNFAQYNHEMGTKAGDELLHQASELMVLLLRPQDCLCREHSDHFLILLPQTRLSQADRLMKVIAQNLNSELELPNYMSVEVHTHRVEELSAVDAITALHTQVEEMTHYAPLAN”: “failed”.
The same measure for “MQLRTKLVIYSTVCCAFGVLLTLATMKYLFSTSSPEVATPATLPDVQLPELDLAQLQDSVAAIESAIKNTEQFQQAFSLQERLRADQIKHELQKLEQLKQEQLQIKLYKLELLKQGLFNPAPHPANMVPALPVVEQSKLPPLSLDPQAEHTPPIFELVLVILLACSVCALGVAWFTRHLARSLDALEVGLLNFNDNDFSVSIPTNGEGQLKTLAELFNHSAAKLRQERQYIYQRELLLDKVIQSSPNVMLLLNDHQRLMYANDAARHLFQIKGKMEGLSLEELLQELPEALALALKQEKSGLFTMGEDDAETWYLSRGQFLLNNQQHNLILLKQMTRELNRQEVAVWKKVIRIISHELNNSVAPIASMVNSGRLLTKDLDNPKLKLIFDTIESRTNHLSQFIYNYARFAKLPLPQRRKVAWSQLIEQLTQHYPFSLTHELPIEDGYVDQGQMEQVLLNLLKNAHESGSNPEEVTLSIRYQKMVDGGGFSIKIEDRGSGMSEEVLEQALLPFYSTKQSGTGLGLPLCREIIEAHDGSISMHNRTEGGLSVLLWLPQ”: “failed”; for “MQLYYLGPKGTFSYLACRQYFSENEATFQPKSNLFEVIKAVADDDTSIGVVPIENSIEGTINIVADALAQQDVFAHGEIRLDINFALYGNGTDSISDIKKVYSIAPAISQTTNYIHQHQFDYDYVDSTIQSLTKIENGVAAIAPLGSGEAYGFTPIDTHIEDYPHNVTRFLVIKNQQQFDQNATSLMFLITPMHDKPGLLASVLNTFALFNINLSWIESRPLKTQLGMYRFFVQADSAITTDIKKVIAILETLDFKVEMIGAFN”: “not failed”.
As for “MQMLSRIHRETCSQDVNECGMKPRPCQHRCVNTHGSYKCFCLSGHMLMPDATCVNSRTCAMINCQYSCEDTEEGPQCLCPSSGLRLAPNGRDCLDIDECASGKVICPYNRRCVNTFGSYYCKCHIGFELQYISGRYDCIDINECTMDSHTCSHHANCFNTQGSFKCKCKQGYKGNGLRCSAIPENSVKEVLRAPGTIKDRIKKLLAHKNSMKKKAKIKNVTPEPTRTPTPKVNLQPFNYEEIVSRGGNSHGGKKGNEEKMKEGLEDEKREEKALKNDIEERSLRGDVFFPKVNEAGEFGLILVQRKALTSKLEHKDLNISVDCSFNHGICDWKQDREDDFDWNPADRDNAIGFYMAVPALAGHKKDIGRLKLLLPDLQPQSNFCLLFDYRLAGDKVGKLRVFVKNSNNALAWEKTTSEDEKWKTGKIQLYQGTDATKSIIFEAERGKGKTGEIAVDGVLLVSGLCPDSLLSVDD”, the protein production entry is reported as “failed”.
The same measure for “MQMMSELFASGTVVDAVLIFLLVEAIGVIGYWLWRKHGIAPADFLPGMISGALMLLALRAVLAGAGWMVPTLCLLAAGGAHLVDVLRRWR”: “failed”; for “MQMNSEKFFKLFRVGETVLVEYSGTSRAELLLYYIVNNSKLPIVVDDILDTYYEFYTRLKVAGFDVAPLENVQVIKMGGTKDIGRVIGRLNISKYVISEQEYMEIVSQLKDYPVINPVLGLHKLILLGNTFENINVVKMVSNYVGREERIAFYFVNRNVIEKHSSPILDLLEEVVTSILEITDSGIIIKKSIKDEIAGKIVSPLLNF”: “not failed”.
